Experimental data as given in US9822336B2, “Blastoid, cell line based artificial blastocyst” (Universiteit Maastricht, priority 2013, dated 2017).

B1: HB-EGF: a protein and a growth factor known in the art to activate the MAPK signalling pathway (protein, UniProt Q99075 63-148, looked up)
Heparin-binding EGF-like …: DLQEADLDLLRVTLSSKPQALATPNKEEHGKRKKKGKGLGKKRDPCLRKYKDFCIHGECKYVKELRAPSCICHPGYHGERCHGLSL
modifications: Heparin-binding EGF-like growth factor
B2: Wnt3a: Wnt ligand (protein, UniProt P56704 19-352, looked up)
Protein Wnt-3a: SYPIWWSLAVGPQYSSLGSQPILCASIPGLVPKQLRFCRNYVEIMPSVAEGIKIGIQECQHQFRGRRWNCTTVHDSLAIFGPVLDKATRESAFVHAIASAGVAFAVTRSCAEGTAAICGCSSRHQGSPGKGWKWGGCSEDIEFGGMVSREFADARENRPDARSAMNRHNNEAGRQAIASHMHLKCKCHGLSGSCEVKTCWWSQPDFRAIGDFLKDKYDSASEMVVEKHRESRGWVETLRPRYTYFKVPTERDLVYYEASPNFCEPNPETGSFGTRDRTCNVSSHGIDGCDLLCCGRGHNARAERRREKCRCVFHWCCYVSCQECTRVYDVHTCK

Columns and labels:
[1] = system: Cdx2 expression in trophoblast stem cells of ES-TS aggregates; assay: Cdx2 expression by CDX2 immunostaining; format: cell-based, mouse; conditions: CDX2 immunostaining (FIG. 4g)
Protocol: • Double layer formation: the formation of an (at least) double layered cell aggregate with an external layer of TS cells and an inner layer of ES cells is evaluated using transgenic cell lines. Specifically, ES cells were transfected with Histone 2B and a Red Fluorescent Protein under the control of a cytomegalovirus promoter and clonally derived. The H2B-RFP ES cells are thus constitutively expressing a red fluorescence within their nucleus which allows for their tracking. • TS cells were derived from a mouse constitutively expressing Green Fluorescent Protein (GFP) under the control of a cytomegalovirus promoter in all cells. The GFP TS cells are thus expressing a green fluorescence in their cytoplasma which allows for their tracking. • The formation of a double-layered aggregate is thus assessed by observing a green outer layer of cells and a red inner layer of cells. The efficiency of engulfment is determined as the percentage of green-colored projection area (representing the TS cell layer) that overlaps with an artificial 3-pixel-wide ring drawn around the red-colored projection area (representing the inner aggregate of ES cells) after 24 hours of culturing the ES-TS cell clusters. […] The formation of a cavity is preferably assessed using the cross-sectional section of a cellular aggregate stained with a nuclear-specific dye (for example DAPI). […]

ES-TS cell clusters = assay: Cavitation of ES-TS cell clusters (yield of cavitated blastoids); format: cell-based, mouse; conditions: FIG. 4h; CHIR99021 at 3 uM
Protocol: FIG. 4c: […], The yield of cavitated blastoids is described by the percentage of ES-TS cell clusters that were cavitated after 96 hours of culture, thus forming an artificial blastocyst or blastoid. […]
The efficiency of blastoid formation is measured as the percentage of cavitated structures with (1) an external cellular layer expressing the transcription factors CDX2, Eomes and GATA3 and (2) an internal cellular aggregate expressing the transcription factors Oct4 and Sox2 and at least partly Nanog.
The formation of a cavity is assessed by the formation of a volume within the aggregate that is not occupied by cellular nucleus. The formation of a cavity is preferably assessed using the cross-sectional section of a cellular aggregate stained with a nuclear-specific dye (for example DAPI).
• Double layer formation: the formation of an (at least) double layered cell aggregate with an external layer of TS cells and an inner layer of ES cells is evaluated using transgenic cell lines. […] The H2B-RFP ES cells are thus constitutively expressing a red fluorescence within their nucleus which allows for their tracking. • TS cells were derived from a mouse constitutively expressing Green Fluorescent Protein (GFP) under the control of a cytomegalovirus promoter in all cells. […]

Row | Molecule | Cdx2 expression [1] | yield of cavitated blastoids / cavitation (ES-TS cell clusters)
1 | B1 | positively correlates with an increase of Cdx2 expression | –
2 | B2 | – | increases the yield of cavitated blastoids
